The series “AUC” concerns the molecule itself. In words: AUC.
The series “crystal structure” deals with the molecule itself. In words: crystal structure.

B1: N-terminal truncated Z,Z-farnesyl diphosphate synthase (ΔzFPS) (enzyme, Solanum habrochaites, UniProt B8XA40 71-303, looked up)
chain: MLDEALMPKHIALIMDGNRRWAKDKGLDVSEGHKHLFPKLKEICDISSKLGIQVITAFAFSTENWKRAKGEVDFLMQMFEELYDEFSRSGVRVSIIGCKTDLPMTLQKCIALTEETTKGNKGLHLVIALNYGGYYDILQATKSIVNKAMNGLLDVEDINKNLFDQELESKCPNPDLLIRTGGDQRVSNFLLWQLAYTEFYFTKTLFPDFGEEDLKEAIINFQQRHRRFGGHTY
B1: the stoichiometry N (usually a count of units in the complex or per binding partner) in the series “AUC” is 2.

B2: ΔzFPS-H103Y mutant (enzyme, Solanum habrochaites, UniProt B8XA40 71-303, looked up)
chain: MLDEALMPKHIALIMDGNRRWAKDKGLDVSEGYKHLFPKLKEICDISSKLGIQVITAFAFSTENWKRAKGEVDFLMQMFEELYDEFSRSGVRVSIIGCKTDLPMTLQKCIALTEETTKGNKGLHLVIALNYGGYYDILQATKSIVNKAMNGLLDVEDINKNLFDQELESKCPNPDLLIRTGGDQRVSNFLLWQLAYTEFYFTKTLFPDFGEEDLKEAIINFQQRHRRFGGHTY
Consider B2, for which the binding result in “crystal structure” is reported as “binds”.
